Reference: patent publication US20220010008A1
“And” between values parts separate entries of the source, which are not always exact repeats. Identical values can stand only once.

Experiments:
[1] = biological target: recombinant human IL-5 protein (human) (UniProt P05113); assay: FACS, biotin-IL-5 bound to CHOK1 hIL-5Ra/CSF2RB cells with Ab 0.0004 nM
[2] = biological target: recombinant human IL-5 protein (human) (UniProt P05113); assay: FACS, biotin-IL-5 bound to CHOK1 hIL-5Ra/CSF2RB cells with Ab 0.0533 nM
[3] = biological target: recombinant human IL-5 protein (human) (UniProt P05113); assay: FACS, biotin-IL-5 bound to CHOK1 hIL-5Ra/CSF2RB cells with Ab 6.6667 nM
[4] = biological target: recombinant human IL-5 protein (human) (UniProt P05113); assay: FACS, biotin-IL-5 bound to CHOK1 hIL-5Ra/CSF2RB cells with Ab 1.3333 nM
[5] = biological target: recombinant human IL-5 protein (human) (UniProt P05113); assay: FACS, biotin-IL-5 bound to CHOK1 hIL-5Ra/CSF2RB cells with Ab 33.3333 nM
[6] = biological target: recombinant human IL-5 protein (human) (UniProt P05113); assay: cell-based or functional assay
[7] = biological target: recombinant human IL-5 protein (human) (UniProt P05113); assay: FACS, biotin-IL-5 bound to CHOK1 hIL-5Ra/CSF2RB cells with Ab 0.0107 nM
[8] = biological target: recombinant human IL-5 protein (human) (UniProt P05113); assay: FACS, biotin-IL-5 bound to CHOK1 hIL-5Ra/CSF2RB cells with Ab 0.2667 nM
[9] = biological target: recombinant human IL-5 protein (human) (UniProt P05113); assay: SPR, human IL-5 immobilized on chip, 1:1 fit
[10] = biological target: recombinant human IL-5 protein (human) (UniProt P05113); assay: FACS, biotin-IL-5 bound to CHOK1 hIL-5Ra/CSF2RB cells with Ab 0.0021 nM
[11] = biological target: recombinant human IL-5 protein with His tag (human) (UniProt P05113); assay: ELISA, biotin-human IL-5 on streptavidin; antibody 0.0009 nM
[12] = biological target: recombinant human IL-5 protein with His tag (human) (UniProt P05113); assay: ELISA, biotin-human IL-5 on streptavidin; antibody 2.6667 nM
[13] = biological target: recombinant human IL-5 protein with His tag (human) (UniProt P05113); assay: ELISA, biotin-human IL-5 on streptavidin; antibody 0.1067 nM
[14] = biological target: recombinant human IL-5 protein with His tag (human) (UniProt P05113); assay: ELISA, biotin-human IL-5 on streptavidin; antibody 0.0002 nM
[15] = biological target: recombinant human IL-5 protein with His tag (human) (UniProt P05113); assay: ELISA, biotin-human IL-5 on streptavidin; antibody 13.3333 nM
[16] = biological target: recombinant human IL-5 protein with His tag (human) (UniProt P05113); assay: ELISA, biotin-human IL-5 on streptavidin; antibody 0.0043 nM
[17] = biological target: recombinant human IL-5 protein with His tag (human) (UniProt P05113); assay: ELISA, biotin-human IL-5 on streptavidin; antibody 0.5333 nM
[18] = biological target: recombinant human IL-5 protein with His tag (human) (UniProt P05113); assay: ELISA, biotin-human IL-5 on streptavidin; antibody 0.0213 nM

Binder | Fluorescence intensity [1] | Fluorescence intensity [2] | Fluorescence intensity [3] | Fluorescence intensity [4] | Fluorescence intensity [5] | RLU, CTLL-2 cell proliferation stimulated by IL-5, Ab conc. 0.000170667 nM [6] | RLU, CTLL-2 cell proliferation stimulated by IL-5, Ab conc. 0.000853333 nM [6] | RLU, CTLL-2 cell proliferation stimulated by IL-5, Ab conc. 0.004266667 nM [6] | RLU, CTLL-2 cell proliferation stimulated by IL-5, Ab conc. 0.02133333 nM [6] | RLU, CTLL-2 cell proliferation stimulated by IL-5, Ab conc. 0.1066667 nM [6] | RLU, CTLL-2 cell proliferation stimulated by IL-5, Ab conc. 0.5333334 nM [6] | RLU, CTLL-2 cell proliferation stimulated by IL-5, Ab conc. 2.666667 nM [6] | RLU, CTLL-2 cell proliferation stimulated by IL-5, Ab conc. 13.33333 nM [6] | RLU, CTLL-2 cell proliferation stimulated by IL-5, Ab conc. 66.66666 nM [6] | RLU, CTLL-2 cell proliferation stimulated by IL-5, Ab conc. 3.41333E-05 nM [6] | RLU, TF-1 cell proliferation stimulated by IL-5, Ab conc. 0.00001 nM [6] | RLU, TF-1 cell proliferation stimulated by IL-5, Ab conc. 0.00003 nM [6] | Kd [9] | koff [9] | kon [9] | also measured
151G3B11 (murine hybridoma antibody) (antibody, V domains shown) VH: EVHLQQSGAELVKPGASVKLSCTASGFNIKDYYMHWVKQRTEQGLEWIGRIDPEDGETKYAPKFQGQATITADTSSNTANLQLSSLTSEDTAVYYCARYGNFPDYWGPGTTLTVSS VL: QIVLTQSPALMSASPGEKVTMTCSASSSVSYMYWYQQKPRSSPKPWIYLTSKLASGVPARFSGSGSGTSYSLTISSMEAEDAATYYCQQWNSNPYTFGGGTKLEIK |  |  |  |  |  |  |  |  |  |  |  |  |  |  |  |  |  |  |  |  | OD450 nm [11]: 0.185 and 0.186; OD450 nm [12]: 4.07 and 3.8; OD450 nm [13]: 3.5 and 3.4; OD450 nm [14]: 0.103 and 0.094; OD450 nm [15]: 4.07 and 4.04; OD450 nm [16]: 0.625 and 0.609; OD450 nm [17]: 4.03 and 3.75; OD450 nm [18]: 2.02 and 2.11
69F2F3 (murine hybridoma lead antibody) (antibody, V domains shown) VH: QVQLKQSGPGLVQPSQSLSITCTVSGFSLSNYGVHWVRQSPGKGLEWLGVIWSGGSTDYNAAFKSRLSITKDNSKSQVVFRMNSLQTDDTATYYCARNKDFLDYWGQGTKFTVSS VL: DIVMTQSPSSLTVTAGEKVTMTCKSSQGLLNSGNQKNYLTWYQQKPGQPPKLLIYWASTRESGVPDRFTGSGSGTDFTLTISSVQAEDLAVYYCQNDYHFPLTFGAGTKLELK |  |  |  |  |  |  |  |  |  |  |  |  |  |  |  |  |  | 0.0221 nM | 8.14e-06 s⁻¹ | 368000 M⁻¹ s⁻¹ | 

More lines, main results first:

Fluorescence intensity [1] | Fluorescence intensity [2] | Fluorescence intensity [3] | Fluorescence intensity [4] | Fluorescence intensity [5] | RLU, CTLL-2 cell proliferation stimulated by IL-5, Ab conc. 0.000170667 nM [6] | RLU, CTLL-2 cell proliferation stimulated by IL-5, Ab conc. 0.000853333 nM [6] | RLU, CTLL-2 cell proliferation stimulated by IL-5, Ab conc. 0.004266667 nM [6] | RLU, CTLL-2 cell proliferation stimulated by IL-5, Ab conc. 0.02133333 nM [6] | RLU, CTLL-2 cell proliferation stimulated by IL-5, Ab conc. 0.1066667 nM [6] | RLU, CTLL-2 cell proliferation stimulated by IL-5, Ab conc. 0.5333334 nM [6] | RLU, CTLL-2 cell proliferation stimulated by IL-5, Ab conc. 2.666667 nM [6] | RLU, CTLL-2 cell proliferation stimulated by IL-5, Ab conc. 13.33333 nM [6] | RLU, CTLL-2 cell proliferation stimulated by IL-5, Ab conc. 66.66666 nM [6] | RLU, CTLL-2 cell proliferation stimulated by IL-5, Ab conc. 3.41333E-05 nM [6] | RLU, TF-1 cell proliferation stimulated by IL-5, Ab conc. 0.00001 nM [6] | RLU, TF-1 cell proliferation stimulated by IL-5, Ab conc. 0.00003 nM [6] | Kd [9] | koff [9] | kon [9] | Binder | also measured
96 | 90 | 36 | 55 | 31 | 56800 RLU and 61000 RLU | 56400 RLU and 57300 RLU | 50600 RLU and 55900 RLU | 49000 RLU and 45200 RLU | 26500 RLU and 26300 RLU | 16700 RLU and 15200 RLU | 13700 RLU and 14400 RLU | 12900 RLU and 13500 RLU | 10700 RLU and 11300 RLU | 58900 RLU and 59800 RLU | 111000 RLU and 112000 RLU | 111000 RLU and 113000 RLU | < 0.0504 nM | < 1e-05 s⁻¹ | 198000 M⁻¹ s⁻¹ | 147D7H2 (murine hybridoma lead antibody) (antibody, V domains shown) VH: EVQLQQSGAELVKPGASVKLSCTASGFNIKDYFIHWVKQRTEQGLEWIGRIDTEDGETKYAPKFQGKATITIDTSSNTAYLYFSSLTSEDTAMYYCARYGNYVAMDYWGQGTSVTVSS VL: QIVLTQSPALMSASPGEKVTMTCSASSSVSYMFWYQQKPSSSPKPWIYLTSKLASGVPARFSGSGSGTSYSLTISSVEAEDAATYYCQQWNSNPYTFGGGTKLEIK | RLU, TF-1 cell proliferation stimulated by IL-5, Ab conc. 0.00017 nM [6]: 116000 RLU and 112000 RLU; RLU, TF-1 cell proliferation stimulated by IL-5, Ab conc. 0.00085 nM [6]: 105000 RLU; RLU, TF-1 cell proliferation stimulated by IL-5, Ab conc. 0.00427 nM [6]: 90300 RLU and 86300 RLU; RLU, TF-1 cell proliferation stimulated by IL-5, Ab conc. 0.02133 nM [6]: 72200 RLU and 55900 RLU; RLU, TF-1 cell proliferation stimulated by IL-5, Ab conc. 0.10667 nM [6]: 42300 RLU and 43600 RLU; RLU, TF-1 cell proliferation stimulated by IL-5, Ab conc. 0.53333 nM [6]: 36200 RLU and 39400 RLU; RLU, TF-1 cell proliferation stimulated by IL-5, Ab conc. 2.66667 nM [6]: 39900 RLU and 38100 RLU; RLU, TF-1 cell proliferation stimulated by IL-5, Ab conc. 13.33333 nM [6]: 35500 RLU and 37500 RLU; Fluorescence intensity [7]: 88; Fluorescence intensity [8]: 74; Fluorescence intensity [10]: 93
93 | 84 | 34 | 46 | 30 | 58000 RLU and 54700 RLU | 56500 RLU and 56300 RLU | 53600 RLU and 50900 RLU | 39300 RLU and 38800 RLU | 14000 RLU and 12200 RLU | 12500 RLU and 11700 RLU | 8720 RLU and 8840 RLU | 7410 RLU and 6600 RLU | 6500 RLU and 5240 RLU | 60600 RLU and 48600 RLU | 104000 RLU and 105000 RLU | 95400 RLU and 98300 RLU | 0.0186 nM | 9.04e-06 s⁻¹ | 486000 M⁻¹ s⁻¹ | 151G3B11 (murine hybridoma lead antibody) (antibody, V domains shown) VH: EVHLQQSGAELVKPGASVKLSCTASGFNIKDYYMHWVKQRTEQGLEWIGRIDPEDGETKYAPKFQGQATITADTSSNTANLQLSSLTSEDTAVYYCARYGNFPDYWGPGTTLTVSS VL: QIVLTQSPALMSASPGEKVTMTCSASSSVSYMYWYQQKPRSSPKPWIYLTSKLASGVPARFSGSGSGTSYSLTISSMEAEDAATYYCQQWNSNPYTFGGGTKLEIK | RLU, TF-1 cell proliferation stimulated by IL-5, Ab conc. 0.00017 nM [6]: 86500 RLU and 91300 RLU; RLU, TF-1 cell proliferation stimulated by IL-5, Ab conc. 0.00085 nM [6]: 72700 RLU and 70700 RLU; RLU, TF-1 cell proliferation stimulated by IL-5, Ab conc. 0.00427 nM [6]: 51100 RLU and 54700 RLU; RLU, TF-1 cell proliferation stimulated by IL-5, Ab conc. 0.02133 nM [6]: 49900 RLU and 47200 RLU; RLU, TF-1 cell proliferation stimulated by IL-5, Ab conc. 0.10667 nM [6]: 40400 RLU; RLU, TF-1 cell proliferation stimulated by IL-5, Ab conc. 0.53333 nM [6]: 35100 RLU and 37700 RLU; RLU, TF-1 cell proliferation stimulated by IL-5, Ab conc. 2.66667 nM [6]: 37900 RLU and 34300 RLU; RLU, TF-1 cell proliferation stimulated by IL-5, Ab conc. 13.33333 nM [6]: 35300 RLU and 36600 RLU; Fluorescence intensity [7]: 87; Fluorescence intensity [8]: 69; Fluorescence intensity [10]: 86
